From US20200040048A1 (published 2020)
Bridge positions count the residues as written; N and C are the ends. Square brackets hold non-standard residues; d marks the D form. dPhe(4-CF3) = N[C@H](Cc1ccc(C(F)(F)F)cc1)C(=O)O; R8 = C=CCCCCCC[C@@](C)(N)C(=O)O; R5 = C=CCCC[C@@](C)(N)C(=O)O; hLeu = CC(C)CC[C@H](N)C(=O)O; S5 = C=CCCC[C@](C)(N)C(=O)O; Cou6 = not defined here; Cou8 = not defined here; βAla = NCCC(=O)O

T1: MDMX (40 kD), O15151
T1 chain: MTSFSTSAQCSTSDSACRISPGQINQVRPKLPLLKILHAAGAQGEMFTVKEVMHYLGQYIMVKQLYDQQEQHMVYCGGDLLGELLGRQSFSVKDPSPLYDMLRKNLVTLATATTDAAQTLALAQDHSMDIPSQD

T2: zebrafish MDMX protein (residues 15-129, L46V/V95L) (zebrafish, UniProt Q7ZUW7 15-129)
T2 construct: Purified on Ni-NT agarose, so it probably carries a His tag from pET15b
T2 sequence (looked up): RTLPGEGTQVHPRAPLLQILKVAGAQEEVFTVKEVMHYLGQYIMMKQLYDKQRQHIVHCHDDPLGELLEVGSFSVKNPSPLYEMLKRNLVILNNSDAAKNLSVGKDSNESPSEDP


Columns and labels:
MDMX (40 kD), O15151 = target: T1, MDMX (40 kD), O15151; assay: competitive FP on MDMX, FAM-labeled linear peptide displaced; Ki grade, + = >1000 nM; conditions: remark: other sources report otherwise
MDM2 = target: T3, MDM2 (UniProt Q00987 1-138, limits assumed); assay: competitive FP vs FAM-labeled linear peptide, MDM2 41 kD; grade, scale in paragraph 603
T3 construct: also called MDM2 (41 kD); HDM2
T3 sequence (Q00987 1-138 limits assumed): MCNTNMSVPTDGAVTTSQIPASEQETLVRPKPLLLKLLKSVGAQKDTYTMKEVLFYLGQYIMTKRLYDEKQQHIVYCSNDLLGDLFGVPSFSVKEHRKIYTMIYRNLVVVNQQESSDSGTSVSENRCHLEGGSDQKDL
Description: Then, diluted solution was further diluted from 100 μM to 10 μM with water (dilution 1:10), and diluted again with FP buffer from 10 μM to 40 nM (dilution 1:250). […] The diluted FAM-labeled peptides were kept in the dark until use.

[1] = target: T2, zebrafish MDMX protein (residues …); assay: X-ray co-crystallography, complex refined to 2.3 Å
Description: The solution was allowed to sit overnight at 4° C. before setting up crystallization experiments. […] Cells were allowed to grow an additional 18 hr at 23° C. The protein was purified using Ni-NT Agarose followed by Superdex 75 buffered with 50 mM NaPO₄, pH 8.0, 150 mM NaCl, and 2 mM TCEP, and concentrating to 24 mg/ml. The buffer was exchanged to 20 mM Tris, pH 8.0, 50 mM NaCl, and 2 mM DTT for crystallization experiments. Initial crystals were obtained with the Nextal AMS screen #94, and the final optimized reservoir was 2.6 M AMS, 75 mM Hepes, pH 7.5. Crystals grew routinely as thin plates at 4° C. and were cryo-protected by pulling the crystals through a solution containing concentrated (3.4 M) malonate followed by flash cooling, storage, and shipment in liquid nitrogen.
For data collection, crystals were rotated through 180° in 1° increments using 0.8 second exposure times. […] Molecular replacement with program Molrep (CCP4) was performed with the MDMX component of the structure, and two molecules were identified in the asymmetric unit.

Row | Ki (MDMX (40 kD), O15151) | Binder | other results
1 | > 1000 nM | Cou8-[βAla]LTF[R8]EYWAQ[hLeu][S5]SAA-NH2 (staple 5-12; reading uncertain) [SP447 Cou8BaLTF$r8EYWAQhL$SAA-NH2] | –
2 | – | Ac-[dT][dA][dW][dY][dA][dN][dPhe(4-CF3)][dE][R5][dL][dL][dR][R5][dA]-NH2 (staple 9-13, also called Ac-tawyanf4CF3e$r5llr$r5a-NH2) [peptidomimetic macrocycle SP 755] | IC50 (MDM2): ≤ 10 nM
3 | – | QSQQTFANLWRLLAQN (not fully specified; N-terminal acetyl; C-terminal amide; %r8 at position 7 and % at position 14 are crosslinked alpha-methyl non-natural amino acids forming the i, i+7 aliphatic staple (the token '%' alone is not defined in the filing)) [Ac-QSQQTF%r8NLWRLL%QN-NH2] | binding result [1]: binds
4 | > 1000 nM | Cou6-[βAla]LTF[R8]EYWAQ[hLeu][S5]SAA-NH2 (staple 5-12; reading uncertain) [SP446 Cou6BaLTF$r8EYWAQhL$SAA-NH2] | –
